Legend:
Assay in all cases: cell_activity
[1] = test system: 16S rDNA cp-DdCBE left (synthetic); details: pair, mRNA in lettuce protoplasts
[2] = test system: mouse ND5 silent DdCBE right (synthetic); details: pair, NIH3T3
[3] = test system: 16S rDNA cp-DdCBE right (synthetic); details: pair, mRNA in lettuce protoplasts
[4] = biological target: ND4 TALE-TadA* (synthetic) (UniProt P14727); details: A-to-G editing
[5] = biological target: mDdCBE ND4 TALE-E1347A DddAtox (synthetic) (UniProt P14727); details: monomeric full-length DddAtox
[6] = biological target: mDdCBE ND4 TALE-GSVG DddAtox (synthetic) (UniProt P14727); details: monomeric full-length DddAtox
[7] = test system: ATP6 mt-DdCBE left (synthetic)
[8] = test system: ATP6 (lettuce) mt-DdCBE right (synthetic); details: pair, lettuce protoplasts; first printed repeat NG vs G in site

With “GGGGAGTACGTTCGCAAG (double strand) [16S rDNA left TALE site]” the activity [1] was under 25%.
For “TTAAAATAAAGTTATTATT (double strand) [ND5 silent right TALE site]”, the activity [2] was under 19%.
In the case of “TGTGCGGGCCCCCGTCAA (double strand) [16S rDNA right TALE site]”, the activity [3] is reported as under 25%.
For ND4 TALE target, the activity [4] was under 0.6%, the activity [5] was under 7.2% and the activity [6] was under 31%.
“TATTGGCATTACTATAG (double strand) [ATP6 left TALE site]” was tested, and the activity [7] was 23%.
In the case of “GAAAAAATGAAGCCCA (double strand) [ATP6 lettuce right TALE site]”, the activity [8] is reported as 23%.
